Data taken from the nanobody polyreactivity screen of Harvey et al. (2022).

Assay: yeast display, Sf9 membrane polyspecificity reagent, FACS + sequencing; frameworks hold sequencing errors
Outline: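 A synthetic nanobody library was expressed on Saccharomyces cerevisiae BJ5465 by galactose induction for 36–48 hours. The library was stained for 1 hour at 4 °C with 10% biotinylated, detergent-solubilized Sf9 membrane reagent and enriched with streptavidin microbeads before FACS. Low and high (top ~1%) gates were set on anti-HA fluorescence for expression and streptavidin fluorescence for reagent binding, and each polyreactivity label reflects the gate of origin.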

| Sequence | polyreactivity (PSR sort gate) |
| --- | --- |
| QVQLVESGGGLVQAGGSLRLSCAASGLIFRWYAMGWYRQAPGKEREMVAAITSGGTTNYADSVTGRFTISRDNAKNTVYFQMNSLKPEHSAVYSCNAIVLSYSRYDYWGQGTQVTVSS | high polyreactivity |
| QVQLVESGGGLVQAGGSLRLSCADSGFSIWWYDMGWYRQAPGKERELVAAITADGGDTYYADSVKGRFTISRDYANHTDYLQMNSLKPEDTAVYYCAAEYDVYGYYYWGQGTQVTVSS | high polyreactivity |
| QVQLVESGGGLVQAGGSLRLSCAAYGGTFNGNTMGWYRQAPGKERELVAVIDWSGGSTYYADSVKGRFTISRDNAKNTVYLQMNSLKPEDTAVYYCNADSDAQFREPKGLYYWGQGTQVTVSS | low polyreactivity |
| QVQLVESGGVLVQAGGSLRLSCAASGSTFYFNTMGWYRQAPGKERELVAAITATGASTYYADSVKGRFTISRDIAKNTVYLQMNSLKPEDTAVYYCNVRLRIRSGYWGQGTQVTVSS | high polyreactivity |
| QVQLVESGRGLVQAGGSLRLSCAASGLTFGHYAMGGYRQAPGKERELVAAITSGGRTYYADSVKGRFTISRDNAKNTVYLQMNSLKPEDTAVYYCATRGPRYRYYYWGQGTQVTVSS | high polyreactivity |
| QVQVEESGGGFDQAGGSLRLSCAASGSIFYYNAMGWYRQAPGKERELVAAISGRTGSTYYADSVKGRFTISRDNAKNTVYLQMNSLKPEDTAVYYCNALFLGYYYYWGQGTQVTVSS | high polyreactivity |
| QVQLVESGGGLVQALGSLRLSCAASGFIFGYNAMGWYRQAPGQERELVAAISSSGGSTYYADSVKGRFTISRDNAKNTVYLQMNSLKPEDTAVYYGAARPVALRKYDYWGLGTQVTVSS | low polyreactivity |
| QDQLVESAGGLVQAGGSLRLSCAASGRIFKSYAMGWYRQAPGKERELVASTSYTGGSTYYADSVKGRFTISRDNAKNTVYIQRNSLKPDETAVYYCAPKRVRSAGSYGYWGQGTQVTVSS | low polyreactivity |
| QVQHVESGGGLVQAGGSLRLSCAASGSTFTSYALGWYRQAPGKERELVAAISKSGGSTYYADSVKGRFTISRDNAKNTVYLQMNSLKPEDTSVYYCAASYNVRSYSTSRFDYWGQGTQVTVSS | low polyreactivity |
| QVQLVESGGGLVQAGGSLRLSCAASGFIFYSNDMGWYRQAPGKERELVAAITSSGGSTYYADSVKGRFTISRDNAKNTVYLQMNSLKPEDTAVYYCNADCTTFGLYSWGQGTQVTVSS | low polyreactivity |
| QVQLVESGGGLVKAGGSLRFSCAASGSIFHPYELGWKTQAPRKESDLVAGISRSGTSTYYADSVKGRFTISRDNAKNTVYLQMNSLKPEDTAVYYCYKVLVGSNRGEYDYWGQGTQVTVSS | low polyreactivity |
| QVQLVESGGGLVQAGGSLRLSCSASGRTFANYAMGWYRQAPGKERELVAAISSGGNTYYADSVKGRCTISRDNAKNTVYLQMNSLKPEDTAVYYCAAQPYYYFDEYTQYDYWGQGTQVTVSS | high polyreactivity |
| QVQLVESGGGLVHAGGSLRLSCAASGRIFTTNAMGWYRQAPGKERELVASITRSGSTYYADSVKGRFTISRDNAKNTVYLQMNSLKPEVTAVYYCAAYAYIFLDWGGYPYYLYEYDYWGQGTQVTVSS | low polyreactivity |
| QVQLVESGGGLVQAGGSLRLSCAASGSTFGVNAMGWYRQAPGKERELVATISRGTSTNYADSVKGRFTISRDNAKNTVYLQMHSLKPEDTAVYYCAKRVFYPGAYRYYYWGQGTQVTVSS | high polyreactivity |
| QDQLVESGGGLVQAGGSLRLSCAASGYTLYTYAMGWNRQAPRKERELVAAISTGGGRTYNADSVKGRFTISRDNAKNTVYLQMICLKPEDTAVYYCAAPYRSLKTGRYDYWGQGTQVSVSS | high polyreactivity |
| QVQLVESGGGLVQAGGSLRLSCAASGSIFYYYTMGWYRPAPGKERELVASITGGGSTYYADSVKGRFTISRDNAKNTVYLQMNSLKPDDTAVYYCAAYRYGVTNAYGYWGQGTQVTVSS | high polyreactivity |
| QVQLVESGGGLVQAGGSLRLSCAASGSTIGAYAMGWYRPAPGKERELVAAISRRGGSTYYADSVKGRFTISRDNAKNTVYLQMNSLKPEDSAVYYCNAVGTRVDGEHYYWGQGTQVTVSS | high polyreactivity |
| QVQLVESGGGLVQEGASLRLICAASGRTSYRYAMGWNRQAPGKERELVAAISFGGGSTYYADSVKGRFTISRDYAKNTVYLQMNSLKPEDTAVYYCATDRVKYRNIYTDTGFDYWGQGTQVTVSS | high polyreactivity |
| QVQLLESGGGLVQAGGSLRLSCAASGSTFDIYTMGWYRQAPGKERELVAAISRSGTRTYYADSVKGRFTISRDNAKNTVYLQMNSLKPEDTAVYYCNAVQQYYGTWGYGYWGQGTQVTVSS | high polyreactivity |
| QVQLVESGGGLVQAGGSLRLSCAASGGIFRYYAMGWYRQAPAKERELVAAISSGGRTYYADSVKGRFTISRDNAKTTVYLQMNSLKPEDTAVYYCNADRYWGYDYWGQGTQVTVSS | high polyreactivity |
| QVQLVESRGGLVQAGGSLGLSCAASGRIFSGYAMGWYRKAPGKERELVAAISGSGGTTYYADSVKGRFTISRDNAKNTVYLQINSLKPEDTAVYYCAVVIGVGYGYYYWGQGTQVTVSS | low polyreactivity |
| QVQLVESGGGLVQAGGSLRLSCAASGRTFYRNAMGWYKQAPGKERELVAAISRSGGSTYYADSVKGRFTISRDNAKNTVYLQMNSLKPEDTAVYYCNKRYPLGTEYYYWGLGTQVTVSS | high polyreactivity |

| Sequence | polyreactivity (PSR sort gate) |
| --- | --- |
| QLQHVESGGGLVQAGGSLRLSCAASGRIFGVNAQGWYRQAPGKERELVAAITSGGSTYYADSVKGRFTISRDNAKNTVYLQMKSLKPEDTAVYYGAARYYYLLWYTLPTKYDYWGQGTQVTVSS | high polyreactivity |
| QVQLVESGGGLVQAGGSLRLSCAASGSTFSGYMGWYRQAPGKERELVAAITSSGGSTYYADSVKGRFTISRDNAKNTVYLQMYSLKPEDTAVYYCAADGGYRGEDYWGQGTQVTVSS | high polyreactivity |
| QVQLVESGGGLVQAGGSLRLSCAASGSIFNRNAMGWYRQAPGKERELVASINYSGGSTYYADSVKGRFTISRDNAKNTVYLQMNSLKPEDTAVYYCAADGKTYYRGGGPYYIYYRYDYWGQGTQVTVSS | low polyreactivity |
| QVQLVESGGGLVQAGGSLRLSCAASGFTFNRYAMGWYRQAPGKERELVAAISARGGITYYADSVKGRFTISRDNAKNTVYLQMNSLKPEDTAVYYCNKRYSSWSGEHDYWGQGTQVTVSS | high polyreactivity |
| QVQLVESGGGLVQAGGSLRLSCAASGRIFYWNTMGWYRQAPGKEREFVAAILSRGDTTYYADSVKGRFTISRDNAKNTVYLQMNSLKPEDTAVYYCAARPVRYHYVPSMYYWGQGTQVTVSS | high polyreactivity |
| QVQREESGGGLVQAGGSLRLSGAASGIIFHPYAMGWYRQAPGKERELVAAISWSGDGTYYADSVKGRFTISRDNAKNTVYLQMNSLKPEDTAVYYCNAFSQSWNFYGDGDYWGQGTQLTVSS | low polyreactivity |
| QVQLVESGGGLVQAGGSLRLSCAASGRTFAYNAMGWYRQAAGKVRELVASITSGGSTNYADSVKGRFTISRDNAKNTVYLQMNSLKPEDTAVYYFIKDGKYHRVLYEYWGQGTQVTVSS | low polyreactivity |
| QVQLVESGGGLVQAGGSLRLSCAASGIIVAWYAMGWYRQAPGKERELVARISSGASPNYADSVKGRFTISRDNAKNTVYLQMNSLKPEDTSVYYCAAVSHPFRRSRYDYWRQGTQVTVSS | high polyreactivity |
| QVQLLESGAGLVHAGGSLRISCAASGRTFGLNAMAWNPPAHGKETELVAAISSSGGSTYYADSVKGRFTISRDNPKNTVYLQMNSLTPEDTAVYYCAKVLNRYGTAYYYWGQGTQVTVSS | high polyreactivity |
| QVQHVESGGGLVQAGGSLRLSCAASGSNSAYAMGWYRQAPGKERELVAAINSGGSTTYADSVKGRFTISRDNAKNTVYLQMNSLKPEDTAVYSCAARAPSFRYGTSNYPAYRLDYWGQGTQVTVSS | high polyreactivity |
| QVQLVESGGGLVQAGGSLRLSCAASGRTLVYAMGWYRQAPGKERELVATIYRGGNTYYADSVKGRFTISRDNAKNTVYLQMNSLKPEDTAVYYCNKPTYQWGQGTQVTVSS | high polyreactivity |
| QVQLVESGGGLVQAGGSLRLSCAASGFTFYRYAMGWYRHAPGKERELVAAITRSGSRTYYADSVKGRFTISRDNAKNTVYLQMNSLKPEDTAVYYFNTDGGDHPTARYGYWGQVTQVTVSS | high polyreactivity |
| QVQLVESGGGLVQAGGSLRLSCAASGFTFVYYAMGWYRPAPGKERELVAAISRGGSTYYADSVKGRFTISRDNAKNTVYLQMNSLKPEDTAVYYCNAKKSGLYVSYPAYDYWGQGTQVTVSS | low polyreactivity |
| QVQLVESGGGLVQAGGSLSVSCAASGFTFDRYAMGWYRQAPGKERELVAAISGSGDSTFYADSVKGRFTISRDNAKNTVYLQMNSLKPVDTAVYYCNAKRSFRWTYGYWGQGSQVTVSS | high polyreactivity |
| QDQLVESRGGLVQAGGRLRLSCAASGSIFASNTIGWYRQAPGKEREVVAGITKIGSSTYYADSVKGRFTISRDNAKNTVYLQMNSLKPEDTAVYYCNAYGPNIYSARYDYWGQGTQVTVSS | low polyreactivity |
| QFQLVESGGGLVQAGGSLRLSCAASGSTYSYYAMGWYRQAPGKERELVAAISSRGGSTYYADSVKGRFTISRDNAMNTVYLQMNSLKPEDTAVYYCNADHQFRSSVSGDHDYWGQGTQVTVSS | high polyreactivity |
| QVQLVESGGGLVQAGGSLRLSCAASRRTFKPYAMGWYRQAPGKERELVARISGSGGSTYYADSVKGRFTISRDNAKNTVYLQMNSLKPEDTAVYYCATTPYYWFDYWGQGTQVTVSS | low polyreactivity |
| QVQLVESGGGLVQAGASLSLSCAASGYIFARYAMGLYIQSPGKERELVAAIRGDGGSTYYADSVKGRFTISRDNAKNTVYLQMNSLKPVDTAVYYCSTEIPWVSYYWTYYFWGQCTQVTVSS | high polyreactivity |
| QAQLQESGGSLVQAGGGLRLSCAAIGYISVGSVMGWYRQAPSKERELVASIDQGANTNYADSVKGRFTISRDNAKNNVYLQMNSLKPEDTAVYYCATETTYILNYWGQGTQVTVSS | low polyreactivity |
| QVQLVESGGGLVQAGGSLRLSCAASGSTSWIYAMGWYRQAPGQERELVAAISGRDGSTNYADSVKGRFTISRDNAKNTVYLQMNSLKPEDTAVYYCASYLYKSRYLPEYDYWGQGTQVTVSS | high polyreactivity |
| QVQLVESGGGLVQAGGSLRLSCAASGRIFYGNAMGWYRQAPGKERELVAAISKRGGSTHYADSVKGRFTISRDNAKNPVYLQMNSLKPEDTAVDYCATDSYYVGAVHYYYWGQGTQVTVSS | high polyreactivity |
